For 1 substance, IC50 results are on record in patent US20230348572A1.

In general, pIC50 refers to the IC50 on a negative log10 scale, so that one unit is a factor of ten. A low value points to a high IC50.

pIC50: −log10 of the molar value.

The assay has as its target RBD (amino acids 340-538 NITN.GPKK) expressed on the surface of MDCK-SIAT1 cells (SARS-CoV-2) (UniProt P0DTC2).

In turn, H11-D4-Fc (Fc fusion) had a pIC50 of 7.55.
